The values that follow come from the Human Domainome abundance scans (Beltran et al. 2025).

B1: Retinoic acid receptor beta, residues 85 to 161; numbered along this chain, P10826 (parent)
chain: YKPCFVCQDKSSGYHYGVSACEGCKGFFRRSIQKNMIYTCHRDKNCVINKVTRNRCQYCRLQKCFEVGMSKESVRND

± gives the uncertainty stated by the source.

This series covers variants of B1. The series can be described thus: abundance fitness (aPCA) (normalised: wild type 0, dead -1); higher = more abundant; growth selection in yeast, the domain comes from the species named. The note with it: Homo sapiens.
YKPCFVCQDKSSGYHYGVSACEGCKGFFRRSIQKNHIYTCHRDKNCVINKVTRNRCQYCRLQKCFEVGMSKESVRND [M36H]: the abundance fitness is -0.025 ± 0.13.
Then YKPCFVCQDKSSGYHYGVSACEGCKGFFRRSIQKNIIYTCHRDKNCVINKVTRNRCQYCRLQKCFEVGMSKESVRND [M36I], with -0.239 ± 0.1.
The same measure for YKPCFVCQDKSSGYHYGVSACEGCKGFFRRSIQKNFIYTCHRDKNCVINKVTRNRCQYCRLQKCFEVGMSKESVRND [M36F]: -0.4 ± 0.12; for YKPCFVCQDKSSGYHYGVSACEGCKGFFRRSIQKNWIYTCHRDKNCVINKVTRNRCQYCRLQKCFEVGMSKESVRND [M36W]: -0.127 ± 0.052.
On to YKPCFVCQDKSSGYHYGVSACEGCKGFFRRSIQKNQIYTCHRDKNCVINKVTRNRCQYCRLQKCFEVGMSKESVRND [M36Q], for which the abundance fitness is 0.089 ± 0.059.
The same measure for YKPCFVCQDKSSGYHYGVSACEGCKGFFRRSIQKNPIYTCHRDKNCVINKVTRNRCQYCRLQKCFEVGMSKESVRND [M36P]: -0.216 ± 0.098; for YKPCFVCQDKSSGYHYGVSACEGCKGFFRRSIQKNCIYTCHRDKNCVINKVTRNRCQYCRLQKCFEVGMSKESVRND [M36C]: 0.15 ± 0.065; for YKPCFVCQDKSSGYHYGVSACEGCKGFFRRSIQKNRIYTCHRDKNCVINKVTRNRCQYCRLQKCFEVGMSKESVRND [M36R]: -0.064 ± 0.036.
Turning to YKPCFVCQDKSSGYHYGVSACEGCKGFFRRSIQKNGIYTCHRDKNCVINKVTRNRCQYCRLQKCFEVGMSKESVRND [M36G], the abundance fitness is -0.141 ± 0.035.
As for YKPCFVCQDKSSGYHYGVSACEGCKGFFRRSIQKNEIYTCHRDKNCVINKVTRNRCQYCRLQKCFEVGMSKESVRND [M36E], the abundance fitness amounted to 0.124 ± 0.046.
Consider YKPCFVCQDKSSGYHYGVSACEGCKGFFRRSIQKNSIYTCHRDKNCVINKVTRNRCQYCRLQKCFEVGMSKESVRND [M36S], for which the abundance fitness was -0.002 ± 0.053.
The same measure for YKPCFVCQDKSSGYHYGVSACEGCKGFFRRSIQKNAIYTCHRDKNCVINKVTRNRCQYCRLQKCFEVGMSKESVRND [M36A]: 0.132 ± 0.045; for YKPCFVCQDKSSGYHYGVSACEGCKGFFRRSIQKNKIYTCHRDKNCVINKVTRNRCQYCRLQKCFEVGMSKESVRND [M36K]: 0.01 ± 0.07; for YKPCFVCQDKSSGYHYGVSACEGCKGFFRRSIQKNTIYTCHRDKNCVINKVTRNRCQYCRLQKCFEVGMSKESVRND [M36T]: 0.051 ± 0.065.
As for YKPCFVCQDKSSGYHYGVSACEGCKGFFRRSIQKNLIYTCHRDKNCVINKVTRNRCQYCRLQKCFEVGMSKESVRND [M36L], the abundance fitness came to 0.053 ± 0.046.
Then YKPCFVCQDKSSGYHYGVSACEGCKGFFRRSIQKNVIYTCHRDKNCVINKVTRNRCQYCRLQKCFEVGMSKESVRND [M36V], with 0.072 ± 0.039; and YKPCFVCQDKSSGYHYGVSACEGCKGFFRRSIQKNNIYTCHRDKNCVINKVTRNRCQYCRLQKCFEVGMSKESVRND [M36N], with 0.009 ± 0.11; and YKPCFVCQDKSSGYHYGVSACEGCKGFFRRSIQKHMIYTCHRDKNCVINKVTRNRCQYCRLQKCFEVGMSKESVRND [N35H], with -0.373 ± 0.14.
Then YKPCFVCQDKSSGYHYGVSACEGCKGFFRRSIQKQMIYTCHRDKNCVINKVTRNRCQYCRLQKCFEVGMSKESVRND [N35Q], with 0.087 ± 0.065.
The same measure for YKPCFVCQDKSSGYHYGVSACEGCKGFFRRSIQKSMIYTCHRDKNCVINKVTRNRCQYCRLQKCFEVGMSKESVRND [N35S]: 0.035 ± 0.051; for YKPCFVCQDKSSGYHYGVSACEGCKGFFRRSIQKTMIYTCHRDKNCVINKVTRNRCQYCRLQKCFEVGMSKESVRND [N35T]: 0.039 ± 0.063; for YKPCFVCQDKSSGYHYGVSACEGCKGFFRRSIQKIMIYTCHRDKNCVINKVTRNRCQYCRLQKCFEVGMSKESVRND [N35I]: -0.684 ± 0.32.
In the case of YKPCFVCQDKSSGYHYGVSACEGCKGFFRRSIQKMMIYTCHRDKNCVINKVTRNRCQYCRLQKCFEVGMSKESVRND [N35M], the abundance fitness was -0.149 ± 0.081.
The same measure for YKPCFVCQDKSSGYHYGVSACEGCKGFFRRSIQKWMIYTCHRDKNCVINKVTRNRCQYCRLQKCFEVGMSKESVRND [N35W]: -0.45 ± 0.072.
Then YKPCFVCQDKSSGYHYGVSACEGCKGFFRRSIQKRMIYTCHRDKNCVINKVTRNRCQYCRLQKCFEVGMSKESVRND [N35R], with -0.018 ± 0.037; and YKPCFVCQDKSSGYHYGVSACEGCKGFFRRSIQKKMIYTCHRDKNCVINKVTRNRCQYCRLQKCFEVGMSKESVRND [N35K], with 0.186 ± 0.061; and YKPCFVCQDKSSGYHYGVSACEGCKGFFRRSIQKLMIYTCHRDKNCVINKVTRNRCQYCRLQKCFEVGMSKESVRND [N35L], with -0.235 ± 0.06.
The same measure for YKPCFVCQDKSSGYHYGVSACEGCKGFFRRSIQKPMIYTCHRDKNCVINKVTRNRCQYCRLQKCFEVGMSKESVRND [N35P]: -0.312 ± 0.092; for YKPCFVCQDKSSGYHYGVSACEGCKGFFRRSIQKVMIYTCHRDKNCVINKVTRNRCQYCRLQKCFEVGMSKESVRND [N35V]: -0.184 ± 0.057; for YKPCFVCQDKSSGYHYGVSACEGCKGFFRRSIQKNMDYTCHRDKNCVINKVTRNRCQYCRLQKCFEVGMSKESVRND [I37D]: 0.048 ± 0.079.
In the case of YKPCFVCQDKSSGYHYGVSACEGCKGFFRRSIQKNMEYTCHRDKNCVINKVTRNRCQYCRLQKCFEVGMSKESVRND [I37E], the abundance fitness was 0.046 ± 0.048.
As to YKPCFVCQDKSSGYHYGVSACEGCKGFFRRSIQKNMKYTCHRDKNCVINKVTRNRCQYCRLQKCFEVGMSKESVRND [I37K], the abundance fitness came to 0.13 ± 0.055.
Then YKPCFVCQDKSSGYHYGVSACEGCKGFFRRSIQKNMGYTCHRDKNCVINKVTRNRCQYCRLQKCFEVGMSKESVRND [I37G], with -0.152 ± 0.036; and YKPCFVCQDKSSGYHYGVSACEGCKGFFRRSIQKNMLYTCHRDKNCVINKVTRNRCQYCRLQKCFEVGMSKESVRND [I37L], with -0.053 ± 0.045; and YKPCFVCQDKSSGYHYGVSACEGCKGFFRRSIQKNMCYTCHRDKNCVINKVTRNRCQYCRLQKCFEVGMSKESVRND [I37C], with -0.204 ± 0.099.
On to YKPCFVCQDKSSGYHYGVSACEGCKGFFRRSIQKNMHYTCHRDKNCVINKVTRNRCQYCRLQKCFEVGMSKESVRND [I37H], for which the abundance fitness is -0.161 ± 0.16.
